The record followed here is patent US20240116985A1 (published 2024).

Starred links: 1 amine or outer side, 2 acyl side, 3 side chain; linkers in the order of their positions; H or OH if unused. Positions of bridges follow the written chain, without caps; N, C: chain ends. Non-standard residues stand in square brackets, D forms with d. Primed or numbered codes have the meaning given here. RgN = (R)-3-(((allyloxy)carbonyl)(methyl)amino)-2-amino-2-methylpropanoic acid (stapling residue), C=CCOC(=O)N(C)C[C@@](C)(N[*:1])C(=O)[*:2]; Az″ = 1-((allyloxy)carbonyl)-3-aminoazetidine-3-carboxylic acid (staple end via allyl carbamate), C=CCOC(=O)N1CC(N[*:1])(C(=O)[*:2])C1; PyrS″ = (S)-1-((allyloxy)carbonyl)-3-aminopyrrolidine-3-carboxylic acid (stapling residue), C=CCOC(=O)N1CC[C@@](N[*:1])(C(=O)[*:2])C1; SeN = (S)-5-(((allyloxy)carbonyl)(methyl)amino)-2-amino-2-methylpentanoic acid, C=CCOC(=O)N(C)CCC[C@](C)(N[*:1])C(=O)[*:2]; RdN = (R)-4-(((allyloxy)carbonyl)(methyl)amino)-2-amino-2-methylbutanoic acid, C=CCOC(=O)N(C)CC[C@@](C)(N[*:1])C(=O)[*:2]; SdN = (S)-4-(((allyloxy)carbonyl)(methyl)amino)-2-amino-2-methylbutanoic acid, C=CCOC(=O)N(C)CC[C@](C)(N[*:1])C(=O)[*:2]; SgN = (S)-3-(((allyloxy)carbonyl)(methyl)amino)-2-amino-2-methylpropanoic acid, C=CCOC(=O)N(C)C[C@](C)(N[*:1])C(=O)[*:2]; Az = 1-((allyloxy)carbonyl)-3-aminoazetidine-3-carboxylic acid (stapling residue), C=CCOC(=O)N1CC(N[*:1])(C(=O)[*:2])C1; PyrS = (S)-1-((allyloxy)carbonyl)-3-aminopyrrolidine-3-carboxylic acid, C=CCOC(=O)N1CC[C@@](N[*:1])(C(=O)[*:2])C1; Az(3) = 1-((allyloxy)carbonyl)-3-aminoazetidine-3-carboxylic acid, C=CCOC(=O)N1CC(N[*:1])(C(=O)[*:2])C1; R7″ = (R)-2-amino-2-methylnon-8-enoic acid (stapling residue), C=CCCCCC[C@@](C)(N[*:1])C(=O)[*:2]; R7 = (R)-2-amino-2-methylnon-8-enoic acid, C=CCCCCC[C@@](C)(N[*:1])C(=O)[*:2]; R4 = (R)-2-amino-2-methylhex-5-enoic acid, C=CCC[C@@](C)(N[*:1])C(=O)[*:2]; S7 = C[C@@](CCCCCC=[*:3])(N[*:1])C(=O)[*:2]; R8 = C=CCCCCCC[C@@](C)(N)C(=O)O; Cha = N[C@@H](CC1CCCCC1)C(=O)O; S8 = C=CCCCCCC[C@](C)(N)C(=O)O; R5 = C=CCCC[C@@](C)(N)C(=O)O Where only a bound is given, the exact number is not on record here.

T1: full-length beta-Catenin (Uniprot ID P35222) (Homo sapiens (Human), UniProt P35222 2-781)
T1 construct: Used full-length in both the FP and the AlphaScreen assay; also called B-Catenin; bCat
T1 sequence: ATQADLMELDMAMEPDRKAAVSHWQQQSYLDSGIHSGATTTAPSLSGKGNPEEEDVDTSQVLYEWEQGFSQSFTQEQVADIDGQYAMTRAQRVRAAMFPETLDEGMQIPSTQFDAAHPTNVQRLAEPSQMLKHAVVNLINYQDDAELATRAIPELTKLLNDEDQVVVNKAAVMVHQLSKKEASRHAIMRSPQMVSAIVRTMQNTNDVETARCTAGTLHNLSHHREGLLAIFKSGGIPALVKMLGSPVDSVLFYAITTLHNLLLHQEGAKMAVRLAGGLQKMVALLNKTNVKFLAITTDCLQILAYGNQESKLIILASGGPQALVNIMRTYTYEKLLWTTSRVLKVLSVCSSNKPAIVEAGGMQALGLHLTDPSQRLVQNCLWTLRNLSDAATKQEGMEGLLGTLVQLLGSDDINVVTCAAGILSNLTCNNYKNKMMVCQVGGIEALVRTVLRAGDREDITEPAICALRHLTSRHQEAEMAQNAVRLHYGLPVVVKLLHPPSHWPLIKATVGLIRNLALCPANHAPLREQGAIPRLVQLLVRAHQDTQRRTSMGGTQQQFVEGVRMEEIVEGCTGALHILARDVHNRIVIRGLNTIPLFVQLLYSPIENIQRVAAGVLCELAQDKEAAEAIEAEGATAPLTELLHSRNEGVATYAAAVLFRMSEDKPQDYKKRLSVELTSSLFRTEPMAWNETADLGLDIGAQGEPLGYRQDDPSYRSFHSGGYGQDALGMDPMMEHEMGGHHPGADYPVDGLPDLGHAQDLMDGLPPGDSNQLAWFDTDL

T2: full-length beta-Catenin (Uniprot ID P35222) (Homo sapiens (Human), UniProt P35222 2-781)
T2 construct: The assay text says 'full-length'; also called B-Catenin; bCat
T2 sequence: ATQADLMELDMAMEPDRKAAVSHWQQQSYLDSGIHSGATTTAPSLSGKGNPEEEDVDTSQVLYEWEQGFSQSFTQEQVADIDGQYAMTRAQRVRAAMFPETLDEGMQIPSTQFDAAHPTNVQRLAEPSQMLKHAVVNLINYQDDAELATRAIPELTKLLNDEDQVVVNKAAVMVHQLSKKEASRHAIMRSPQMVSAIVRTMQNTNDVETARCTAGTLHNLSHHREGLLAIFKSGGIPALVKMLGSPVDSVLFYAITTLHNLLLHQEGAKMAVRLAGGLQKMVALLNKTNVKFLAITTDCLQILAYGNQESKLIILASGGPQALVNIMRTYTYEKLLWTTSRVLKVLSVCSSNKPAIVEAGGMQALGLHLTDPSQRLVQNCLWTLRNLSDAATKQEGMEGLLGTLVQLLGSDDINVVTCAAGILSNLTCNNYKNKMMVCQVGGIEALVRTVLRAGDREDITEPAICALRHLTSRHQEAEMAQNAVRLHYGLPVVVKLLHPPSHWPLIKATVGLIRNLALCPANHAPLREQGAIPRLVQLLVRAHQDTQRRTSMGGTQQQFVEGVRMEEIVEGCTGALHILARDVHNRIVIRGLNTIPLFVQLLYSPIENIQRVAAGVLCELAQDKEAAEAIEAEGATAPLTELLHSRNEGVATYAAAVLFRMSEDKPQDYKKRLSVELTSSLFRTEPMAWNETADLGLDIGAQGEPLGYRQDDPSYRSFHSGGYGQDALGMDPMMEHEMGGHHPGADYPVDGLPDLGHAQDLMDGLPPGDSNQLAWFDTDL

B1: I-72 (peptide)
peptide: Ac-ADI[RdN]D[Cha]AAFQ[S7]FWH-NH2
modifications: staple 4-11; not fully specified; printed as Ac-Ala-Asp-Ile-RdN-Asp-Cha-Ala-Ala-Phe-Gln-S7-Phe-Trp-His-NH2
notes: Stapled peptide; also called Ac-Ala-Asp-Ile-RdN-Asp-Cha-Ala-Ala-Phe-Gln-S7-Phe-Trp-His-NH2
B2: I-42 (peptide)
peptide: FDAXDDAAFVXFWQ
modifications: not fully specified; Ac-Phe-Asp-Ala-RdN-Asp-Asp-Ala-Ala-Phe-Val-S4-Phe-Trp-Gln-NH2 as printed: N-terminal acetyl, C-terminal amide, RdN at 4 stapled to S4 at 11
notes: Stapled peptide composition
B3: I-32 (peptide)
peptide: FDAXDDAAFVXFWQ
modifications: not fully specified; Ac-Phe-Asp-Ala-Az-Asp-Asp-Ala-Ala-Phe-Val-S7-Phe-Trp-Gln-NH2 as printed: N-terminal acetyl, C-terminal amide, Az at 4 stapled to S7 at 11
notes: Stapled peptide composition
B4: I-43 (peptide)
peptide: FDAXDDAAFVXFWQ
modifications: not fully specified; Ac-Phe-Asp-Ala-RgN-Asp-Asp-Ala-Ala-Phe-Val-S8-Phe-Trp-Gln-NH2 as printed: N-terminal acetyl, C-terminal amide, RgN at 4 stapled to S8 at 11
notes: Stapled peptide composition
B5: I-31 (peptide)
peptide: Ac-FDA[R7]DDAAFV[PyrS]FWQ-NH2
modifications: staple 4-11; not fully specified; printed as Ac-Phe-Asp-Ala-R7-Asp-Asp-Ala-Ala-Phe-Val-PyrS-Phe-Trp-Gln-NH2
notes: Stapled peptide composition
B6: I-39 (peptide)
peptide: Ac-FDA[R8]DDAAFV[Az(3)]FWQ-NH2
modifications: staple 4-11; not fully specified; printed as Ac-Phe-Asp-Ala-R8-Asp-Asp-Ala-Ala-Phe-Val-Az-Phe-Trp-Gln-NH2
notes: Stapled peptide composition
B7: I-29 (peptide)
peptide: FDAXDDAAFVXFWQ
modifications: not fully specified; Ac-Phe-Asp-Ala-ReN-Asp-Asp-Ala-Ala-Phe-Val-S6-Phe-Trp-Gln-NH2 as printed: N-terminal acetyl, C-terminal amide, ReN at 4 stapled to S6 at 11
notes: Stapled peptide composition
B8: I-41 (peptide)
peptide: FDAXDDAAFVXFWQ
modifications: not fully specified; Ac-Phe-Asp-Ala-RdN-Asp-Asp-Ala-Ala-Phe-Val-S4-Phe-Trp-Gln-NH2 as printed: N-terminal acetyl, C-terminal amide, RdN at 4 stapled to S4 at 11
notes: Stapled peptide composition
B9: I-40 (peptide)
peptide: Ac-FDA[R8]DDAAFV[Az]FWQ-NH2
modifications: staple 4-11; not fully specified; printed as Ac-Phe-Asp-Ala-R8-Asp-Asp-Ala-Ala-Phe-Val-Az-Phe-Trp-Gln-NH2
notes: Stapled peptide composition
B10: I-28 (peptide)
peptide: FDAXDDAAFVXFWQ
modifications: not fully specified; Ac-Phe-Asp-Ala-ReN-Asp-Asp-Ala-Ala-Phe-Val-S6-Phe-Trp-Gln-NH2 as printed: N-terminal acetyl, C-terminal amide, ReN at 4 stapled to S6 at 11
notes: Stapled peptide composition

One assay concerns the target T1, full-length beta-Catenin (Uniprot ID …). The assay is described as follows: AlphaScreen competition; full-length beta-catenin, biotin-TCF4(10-53) probe. The procedure:
(§1) Equal volume of the titrated peptide was added to the plate and incubated for 15 minutes at 20° C. Then 4 uL of donor and 4 uL acceptor beads at 10 ug/mL were added to the plate, for a 16 uL reaction pool and protected from light for 60 minutes at 20° C. prior to read. Reads were performed on a CLARIOstar plate reader (BMG Labtech) in duplicate, and data were fitted to a 1:1 binding model with hill slope using an in-house script. All provided concentrations are final concentrations.
Background: Bead proximity is the source of the signal in Alpha formats.
With B1, the concentration giving a half-maximal response (EC50) is at least 10 µM.

The next assay deals with T2, full-length beta-Catenin (Uniprot ID …). Description: AlphaScreen competition vs biotin-TCF4(10-53) on full-length beta-catenin. The procedure:
as §1
In the case of B2, the EC50 was determined as 9.34 µM. On to Ac-FDA[R5]DDAAFV[SdN]FWQ-NH2 (staple 4-11, Stapled peptide composition) [I-37], for which the EC50 was at least 10 µM.

Regarding Ac-FDA[RgN]DDAAFV[S7]FWQ-NH2 (staple 4-11, Stapled peptide composition) [I-45], the EC50 was at least 10 µM. On to B3, for which it took 7.35 µM to reach a half-maximal effect (EC50). This counts as single-digit micromolar. Turning to Ac-FDA[R7]DDAAFV[Az(3)]FWQ-NH2 (staple 4-11, Stapled peptide composition) [I-38], the half-maximal effective concentration (EC50) was at least 10 µM. On the same count and under the same terms, the same measure for B4: at least 10 µM; for B5: 7.22 µM. Turning to Ac-FDA[R4]DDAAFV[SeN]FWQ-NH2 (staple 4-11, Stapled peptide composition) [I-36], the EC50 worked out at 8.27 µM. In turn, Ac-FDA[Az″]DDAAFV[S8]FWQ-NH2 (staple 4-11, Stapled peptide composition) [I-35] displayed an EC50 of 9.54 µM. Still for that read-out and setting: with Ac-FDA[R7″]DDAAFV[PyrS″]FWQ-NH2 (staple 4-11, Stapled peptide composition) [I-30] the figure was 8.82 µM; with B6, at least 10 µM. Turning to Ac-FDA[Az(3)]DDAAFV[S7]FWQ-NH2 (staple 4-11, Stapled peptide composition) [I-33], the EC50 was found to be 9.98 µM. On the same count and under the same terms, with Ac-FDA[RgN]DDAAFV[S8]FWQ-NH2 (staple 4-11, Stapled peptide composition) [I-44] the figure was at least 10 µM; with B7, at least 10 µM. As to B8, the EC50 was at least 10 µM.

In turn, B9 gave an EC50 of at least 10 µM. As for B10, the EC50 stood at 8.46 µM. This counts as single-digit micromolar. Still for that read-out and setting: with Ac-FDA[R8]DDAAFV[SgN]FWQ-NH2 (staple 4-11, Stapled peptide composition) [I-34] the figure was at least 10 µM.

As usually defined, the EC50 is the concentration at which the effect is half-maximal. Read a low EC50 as greater potency.
